Measurements taken from patent publication US20100021987.

Assays:
[1] = test system: 6xHis-ySmt3-eGFP
[2] = test system: 6xHis-hSUMO-1-eGFP
[3] = test system: 6xHis-hSUMO-3-eGFP
[4] = test system: 6xHis-AtSUMO2-eGFP
[5] = test system: 6xHis-AtSUMO1-eGFP
[6] = test system: 6xHis-T-SUMO-eGFP

GST fusion of the catalytic domain of the Xanthomonas campestris pathovar vesicatoria protease XopD (GST-XopD)
activity level (grade) [1]: +/-
activity level (grade) [2]: -
activity level (grade) [3]: -
activity level (grade) [4]: +/-
activity level (grade) [5]: -
activity level (grade) [6]: +/-
